How the values were obtained:
[1] = biological target: chimeric HPV16 L1:P18I10 capsid protein (293F-derived, chromatography-purified L1:P18I10 VLP) (human papillomavirus type 16 | HIV-1) (UniProt P03101); assay: non-reducing SDS-PAGE (disulfide cross-linking); purified VLPs mixed with 2x Laemmli sample buffer with or without 20 mM DTT, 15 min at room temperature; 8-16% gel; blot probed with anti-HPV16 L1 mAb CAMVIR-1
[2] = biological target: chimeric HPV16 L1:P18I10 capsid protein (BEVS/IC-derived, ultracentrifugation-purified L1:P18I10 VLP) (human papillomavirus type 16 | HIV-1) (UniProt P03101); assay: as above

Question: Which percent disulfide-bonded into oligomers (without DTT) [1] does the source give for “chimeric HPV16 L1:P18I10 capsid protein (293F-derived, chromatography-purified L1:P18I10 VLP) (from UniProt P03101 1-129; P03101 137-505)” here?
Answer: > 99%

Question: And the percent monomeric (with DTT) [1]?
Answer: 80%

Question: With “chimeric HPV16 L1:P18I10 capsid protein (BEVS/IC-derived, ultracentrifugation-purified L1:P18I10 VLP) (from UniProt P03101 1-129; P03101 137-505)” as the substance, how does the percent disulfide-bonded into oligomers (without DTT) [2] read?
Answer: > 99%

Question: And the percent monomeric (with DTT) [2]?
Answer: 50%

— PMC10179162
